Like-named read-outs stand apart in the source and are kept apart here. Residues, ends and D or L forms follow the SMILES beside them.
What was measured:
[1] = molecular target: T1, PepN (general aminopeptidase N) (Lactobacillus helveticus, UniProt S4THV9); assay: product inhibition of H-Ala-pNA hydrolysis; […] residual activity at […]; format: biochemical; details: read-out: % residual activity at 10 mM
T1 construct: His-tagged recombinant full-length PepN (monomer)
T1 sequence (S4THV9 1-844): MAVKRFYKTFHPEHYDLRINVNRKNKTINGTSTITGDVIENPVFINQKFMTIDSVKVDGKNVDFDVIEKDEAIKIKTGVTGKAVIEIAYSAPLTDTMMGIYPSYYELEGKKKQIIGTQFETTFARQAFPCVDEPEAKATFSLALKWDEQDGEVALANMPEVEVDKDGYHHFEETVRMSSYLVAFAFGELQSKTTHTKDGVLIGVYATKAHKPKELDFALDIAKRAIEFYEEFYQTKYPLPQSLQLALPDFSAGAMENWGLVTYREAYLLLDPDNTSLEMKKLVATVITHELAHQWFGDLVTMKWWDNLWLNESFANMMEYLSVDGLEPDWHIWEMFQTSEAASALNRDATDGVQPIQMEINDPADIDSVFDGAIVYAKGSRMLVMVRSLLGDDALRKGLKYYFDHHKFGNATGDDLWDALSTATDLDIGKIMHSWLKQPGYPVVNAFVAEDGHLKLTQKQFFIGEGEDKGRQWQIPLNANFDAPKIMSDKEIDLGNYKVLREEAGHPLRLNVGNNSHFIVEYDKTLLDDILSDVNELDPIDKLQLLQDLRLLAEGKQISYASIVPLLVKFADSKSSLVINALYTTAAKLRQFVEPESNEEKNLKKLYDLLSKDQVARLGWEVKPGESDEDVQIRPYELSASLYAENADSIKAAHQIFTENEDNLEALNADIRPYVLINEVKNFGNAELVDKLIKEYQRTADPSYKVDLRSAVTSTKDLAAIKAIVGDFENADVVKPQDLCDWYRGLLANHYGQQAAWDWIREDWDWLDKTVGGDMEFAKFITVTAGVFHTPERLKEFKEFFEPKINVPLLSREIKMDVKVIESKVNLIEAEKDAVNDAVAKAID

[2] = molecular target: T1, PepN (general aminopeptidase N); assay: as above; format: biochemical; details: read-out: % residual activity at 10 mM; remark: listed apart in the source
[3] = molecular target: T2, PepX (X-prolyl dipeptidyl aminopeptidase) (Lactobacillus helveticus, UniProt Q59485); assay: product inhibition kinetics with H-Ala-Pro-pNA, Lineweaver-Burk; format: biochemical
T2 construct: His-tagged recombinant full-length PepX (homodimer)
T2 sequence (Q59485 1-793): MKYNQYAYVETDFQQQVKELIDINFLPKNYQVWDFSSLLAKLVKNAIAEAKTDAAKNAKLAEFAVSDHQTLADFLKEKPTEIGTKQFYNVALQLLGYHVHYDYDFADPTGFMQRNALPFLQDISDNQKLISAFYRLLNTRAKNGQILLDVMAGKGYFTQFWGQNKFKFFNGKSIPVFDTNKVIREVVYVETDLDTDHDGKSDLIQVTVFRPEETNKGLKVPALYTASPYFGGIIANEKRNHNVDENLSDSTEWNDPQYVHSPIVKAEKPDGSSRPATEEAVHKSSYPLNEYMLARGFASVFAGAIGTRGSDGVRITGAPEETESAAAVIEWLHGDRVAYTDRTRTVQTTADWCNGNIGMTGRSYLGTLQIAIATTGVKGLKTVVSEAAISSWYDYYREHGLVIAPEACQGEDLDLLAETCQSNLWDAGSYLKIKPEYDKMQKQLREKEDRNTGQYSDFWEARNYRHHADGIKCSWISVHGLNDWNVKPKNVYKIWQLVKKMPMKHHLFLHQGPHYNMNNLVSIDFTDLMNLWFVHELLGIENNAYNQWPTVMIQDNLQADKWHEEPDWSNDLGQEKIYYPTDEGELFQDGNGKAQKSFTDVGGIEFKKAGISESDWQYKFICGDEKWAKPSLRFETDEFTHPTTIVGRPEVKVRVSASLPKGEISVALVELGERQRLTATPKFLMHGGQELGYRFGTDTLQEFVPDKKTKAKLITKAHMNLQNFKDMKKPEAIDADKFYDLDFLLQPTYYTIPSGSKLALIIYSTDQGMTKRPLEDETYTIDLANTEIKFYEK

[4] = molecular target: T2, PepX (X-prolyl dipeptidyl aminopeptidase); assay: inhibition of H-Ala-Pro-pNA hydrolysis; […] residual activity at […], […] at […]; format: biochemical
[5] = substrate: C[C@H](N)C(=O)N1CCC[C@H]1C(=O)Nc1ccc([N+](=O)[O-])cc1; assay: enzyme kinetics, p-nitroaniline release, Hanes plot; Km; format: biochemical, Lactobacillus helveticus
[6] = substrate: N=C(N)NCCC[C@H](N)C(=O)Nc1ccc([N+](=O)[O-])cc1; assay: purified protein; details: Zn2+
[7] = substrate: CC(C)C[C@H](N)C(=O)Nc1ccc([N+](=O)[O-])cc1; assay: purified protein; format: biochemical, Lactobacillus helveticus; details: Zn2+
[8] = substrate: C[C@H](N)C(=O)Nc1ccc([N+](=O)[O-])cc1; assay: purified protein; format: biochemical, Lactobacillus helveticus; details: Zn2+
[9] = substrate: NCCCC[C@H](N)C(=O)Nc1ccc([N+](=O)[O-])cc1; assay: purified protein; format: biochemical, Lactobacillus helveticus; details: Zn2+
[10] = substrate: N[C@@H](Cc1ccccc1)C(=O)Nc1ccc([N+](=O)[O-])cc1; assay: purified protein; format: biochemical, Lactobacillus helveticus; details: Zn2+

In the case of N[C@@H](Cc1ccccc1)C(=O)O [L-Phe], the remaining activity at 10000 µM [1] is reported as 24%.

Molecule N=C(N)NCCC[C@H](N)C(=O)O [L-Arg] has a remaining activity at 10000 µM [2] of 19%.

For N[C@@H](Cc1ccccc1)C(=O)N1CCC[C@H]1C(=O)O [H-L-Phe-L-Pro-OH] (H-Phe-Pro-OH), the Ki [3] was 30.1 mM.

With O=S(=O)(F)Cc1ccccc1 [PMSF] the “% residual activity at 10 mM” value [4] was 11.

B1: PepX (X-prolyl dipeptidyl aminopeptidase) (Lactobacillus helveticus) (protein)
chain: MKYNQYAYVETDFQQQVKELIDINFLPKNYQVWDFSSLLAKLVKNAIAEAKTDAAKNAKLAEFAVSDHQTLADFLKEKPTEIGTKQFYNVALQLLGYHVHYDYDFADPTGFMQRNALPFLQDISDNQKLISAFYRLLNTRAKNGQILLDVMAGKGYFTQFWGQNKFKFFNGKSIPVFDTNKVIREVVYVETDLDTDHDGKSDLIQVTVFRPEETNKGLKVPALYTASPYFGGIIANEKRNHNVDENLSDSTEWNDPQYVHSPIVKAEKPDGSSRPATEEAVHKSSYPLNEYMLARGFASVFAGAIGTRGSDGVRITGAPEETESAAAVIEWLHGDRVAYTDRTRTVQTTADWCNGNIGMTGRSYLGTLQIAIATTGVKGLKTVVSEAAISSWYDYYREHGLVIAPEACQGEDLDLLAETCQSNLWDAGSYLKIKPEYDKMQKQLREKEDRNTGQYSDFWEARNYRHHADGIKCSWISVHGLNDWNVKPKNVYKIWQLVKKMPMKHHLFLHQGPHYNMNNLVSIDFTDLMNLWFVHELLGIENNAYNQWPTVMIQDNLQADKWHEEPDWSNDLGQEKIYYPTDEGELFQDGNGKAQKSFTDVGGIEFKKAGISESDWQYKFICGDEKWAKPSLRFETDEFTHPTTIVGRPEVKVRVSASLPKGEISVALVELGERQRLTATPKFLMHGGQELGYRFGTDTLQEFVPDKKTKAKLITKAHMNLQNFKDMKKPEAIDADKFYDLDFLLQPTYYTIPSGSKLALIIYSTDQGMTKRPLEDETYTIDLANTEIKFYEK
notes: His-tagged recombinant full-length PepX (homodimer)
With B1 the Km [5] was 1.3 mM.

B2: PepN (general aminopeptidase N) (Lactobacillus helveticus) (protein)
chain: MAVKRFYKTFHPEHYDLRINVNRKNKTINGTSTITGDVIENPVFINQKFMTIDSVKVDGKNVDFDVIEKDEAIKIKTGVTGKAVIEIAYSAPLTDTMMGIYPSYYELEGKKKQIIGTQFETTFARQAFPCVDEPEAKATFSLALKWDEQDGEVALANMPEVEVDKDGYHHFEETVRMSSYLVAFAFGELQSKTTHTKDGVLIGVYATKAHKPKELDFALDIAKRAIEFYEEFYQTKYPLPQSLQLALPDFSAGAMENWGLVTYREAYLLLDPDNTSLEMKKLVATVITHELAHQWFGDLVTMKWWDNLWLNESFANMMEYLSVDGLEPDWHIWEMFQTSEAASALNRDATDGVQPIQMEINDPADIDSVFDGAIVYAKGSRMLVMVRSLLGDDALRKGLKYYFDHHKFGNATGDDLWDALSTATDLDIGKIMHSWLKQPGYPVVNAFVAEDGHLKLTQKQFFIGEGEDKGRQWQIPLNANFDAPKIMSDKEIDLGNYKVLREEAGHPLRLNVGNNSHFIVEYDKTLLDDILSDVNELDPIDKLQLLQDLRLLAEGKQISYASIVPLLVKFADSKSSLVINALYTTAAKLRQFVEPESNEEKNLKKLYDLLSKDQVARLGWEVKPGESDEDVQIRPYELSASLYAENADSIKAAHQIFTENEDNLEALNADIRPYVLINEVKNFGNAELVDKLIKEYQRTADPSYKVDLRSAVTSTKDLAAIKAIVGDFENADVVKPQDLCDWYRGLLANHYGQQAAWDWIREDWDWLDKTVGGDMEFAKFITVTAGVFHTPERLKEFKEFFEPKINVPLLSREIKMDVKVIESKVNLIEAEKDAVNDAVAKAID
notes: His-tagged recombinant full-length PepN (monomer)
B2 was tested, and the Km [6] was 0.14 mM, the Km [7] was 0.17 mM and the Vmax [7] was 51100 µM/min. It also gave a Km [8] of 0.43 mM, a Vmax [8] of 46100 µM/min and a Km [9] of 0.14 mM. For the same molecule, the Vmax [9] was 93100 µM/min, the Km [10] was 0.15 mM and the Vmax [10] was 15200 µM/min.

— PMC3716637, “Characterization of the Recombinant Exopeptidases PepX and PepN from Lactobacillus helveticus ATCC 12046 Important for Food Protein Hydrolysis” (PLoS ONE, 2013)
